In PMC3077550 (Nature cell biology, 2011):

T1: GST-PP2AB’α (Arabidopsis thaliana, UniProt O04375 1-495)
T1 sequence (looked up): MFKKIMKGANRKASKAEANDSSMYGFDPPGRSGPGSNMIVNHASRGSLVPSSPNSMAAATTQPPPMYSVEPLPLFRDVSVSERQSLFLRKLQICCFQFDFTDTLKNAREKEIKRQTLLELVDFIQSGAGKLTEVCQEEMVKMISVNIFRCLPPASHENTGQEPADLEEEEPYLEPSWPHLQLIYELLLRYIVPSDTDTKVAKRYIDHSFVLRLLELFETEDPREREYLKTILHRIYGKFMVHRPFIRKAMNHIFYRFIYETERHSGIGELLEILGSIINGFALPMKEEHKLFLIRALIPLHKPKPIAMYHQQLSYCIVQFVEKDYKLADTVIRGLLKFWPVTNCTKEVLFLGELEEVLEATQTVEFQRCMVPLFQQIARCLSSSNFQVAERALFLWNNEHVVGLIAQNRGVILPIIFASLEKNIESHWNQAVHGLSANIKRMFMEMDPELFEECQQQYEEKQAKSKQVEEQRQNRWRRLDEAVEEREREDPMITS

T2: GST-BIN2 (Arabidopsis thaliana, UniProt Q39011 1-380)
T2 sequence (looked up): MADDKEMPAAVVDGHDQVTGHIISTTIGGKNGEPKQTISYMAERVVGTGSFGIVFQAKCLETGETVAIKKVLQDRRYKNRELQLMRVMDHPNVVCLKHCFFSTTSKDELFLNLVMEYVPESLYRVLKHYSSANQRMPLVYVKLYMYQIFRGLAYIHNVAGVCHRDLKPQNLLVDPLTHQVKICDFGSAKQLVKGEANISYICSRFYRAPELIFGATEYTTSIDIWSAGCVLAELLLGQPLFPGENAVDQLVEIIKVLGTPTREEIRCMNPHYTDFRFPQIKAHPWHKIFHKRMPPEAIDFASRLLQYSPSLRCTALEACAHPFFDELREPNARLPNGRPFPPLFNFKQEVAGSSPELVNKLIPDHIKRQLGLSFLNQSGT


Tests used:
GST-PP2AB’α = target: T1, GST-PP2AB’α; assay: far-Western, overlay or dot blot
GST-BIN2 = target: T2, GST-BIN2; assay: far-Western, overlay or dot blot

Binder	binding result (GST-PP2AB’α)	binding result (GST-BIN2)
MBP-BZR1 (unphosphorylated) (natural protein, Arabidopsis thaliana, UniProt Q8S307 1-336, looked up) MTSDGATSTSAAAAAAAAAAARRKPSWRERENNRRRERRRRAVAAKIYTGLRAQGDYNLPKHCDNNEVLKALCVEAGWVVEEDGTTYRKGCKPLPGEIAGTSSRVTPYSSQNQSPLSSAFQSPIPSYQVSPSSSSFPSPSRGEPNNNMSSTFFPFLRNGGIPSSLPSLRISNSCPVTPPVSSPTSKNPKPLPNWESIAKQSMAIAKQSMASFNYPFYAVSAPASPTHRHQFHTPATIPECDESDSSTVDSGHWISFQKFAQQQPFSASMVPTSPTFNLVKPAPQQMSPNTAAFQEIGQSSEFKFENSQVKPWEGERIHDVGMEDLELTLGNGKARG	binds	binds
MBP-bzr1-1D (natural protein, Arabidopsis thaliana, UniProt Q8S307 1-336, looked up) MTSDGATSTSAAAAAAAAAAARRKPSWRERENNRRRERRRRAVAAKIYTGLRAQGDYNLPKHCDNNEVLKALCVEAGWVVEEDGTTYRKGCKPLPGEIAGTSSRVTPYSSQNQSPLSSAFQSPIPSYQVSPSSSSFPSPSRGEPNNNMSSTFFPFLRNGGIPSSLPSLRISNSCPVTPPVSSPTSKNPKPLPNWESIAKQSMAIAKQSMASFNYPFYAVSAPASPTHRHQFHTLATIPECDESDSSTVDSGHWISFQKFAQQQPFSASMVPTSPTFNLVKPAPQQMSPNTAAFQEIGQSSEFKFENSQVKPWEGERIHDVGMEDLELTLGNGKARG	binds	binds
